Source: publication doi:10.1101/2023.08.14.553235

Molecular target: GFP1–10 tagged with MCP, with nuclear localization sequences
Assay: P3 editing (protein-protein proximity sensor; genome editing read-out); HEK293T cells transfected with one of 12 designs of crRNA-MS2/BoxB-petracrRNA (upper 4-bp region of the repeat:anti-repeat duplex varied), PE4max and split-GFP or standard GFP (background); editing normalized to the eCTT control

normalized editing efficiency (GAUA:UAUC guide RNA design): 3.8%
Substance: GFP11 tagged with LambdaN, with nuclear localization sequences (peptide)
